{
  "source": "patent US20210100858A1",
  "molecular_target": "Epidermal growth factor receptor (EGFR) on HT29 human colon adenocarcinoma cells (human) (UniProt P00533)",
  "assay": "cell-based or functional assay",
  "data": [
    {"substance": "Hi-D::EGF phage (λF7 phage with maximal EGF surface decoration, generated using SupD E. coli host at 37° C.) (from UniProt P03712 1-110)", "values": [
      {"measurement": "EOP of phage recovered from HT29 spheroids, intercellular, 30 min", "result": 0.00156, "unit": "EOP"},
      {"measurement": "EOP of phage recovered from HT29 spheroids, intercellular, 4 h", "result": 0.0572, "unit": "EOP"},
      {"measurement": "EOP of phage recovered from HT29 spheroids, intercellular, 8 h", "result": 0.0183, "unit": "EOP"},
      {"measurement": "EOP of phage recovered from HT29 spheroids, intercellular, 24 h", "result": 0.0113, "unit": "EOP"},
      {"measurement": "EOP of phage recovered from lysed HT29 cells, intracellular, 30 min", "result": 0.00013, "unit": "EOP"},
      {"measurement": "EOP of phage recovered from lysed HT29 cells, intracellular, 4 h", "result": 0.00392, "unit": "EOP"},
      {"measurement": "EOP of phage recovered from lysed HT29 cells, intracellular, 8 h", "result": 0.00147, "unit": "EOP"},
      {"measurement": "EOP of phage recovered from lysed HT29 cells, intracellular, 24 h", "result": 0.000312, "unit": "EOP"},
      {"measurement": "HT29 spheroid diameter on day 20, 10^4 PFU phage", "result": 1330, "unit": "µm"},
      {"measurement": "HT29 spheroid diameter on day 20, 10^8 PFU phage", "result": 422, "unit": "µm"},
      {"measurement": "recovery of phage particles from the interstitial spaces and within cells at 30 min, against wildtype phages", "result": 150, "unit": "fold"},
      {"measurement": "size of HT29 spheroids on day 20 against control spheroids, high concentration of phage", "result": 3, "unit": "fold"}
    ]}
  ]
}
